Publication PMC7293249 (Nature Communications, 2020)
Where a chain is given by its changes, count along the chain named. In names and notes the source's numbering stands. Each block holds one binder with its values, some of them ahead of it.

Columns and labels:
[1] = target: T1, human activated protein C (Homo sapiens); experiment: SPR; Biacore T200, 25 °C, HBS-P+ (10 mM HEPES pH 7.4, 150 mM NaCl, 0.05% P20) with 1 mg/mL BSA; mAbs captured by immobilised mouse anti-human Fc antibody on CM5; hAPC injected at 1.56-200 nM, hPC at 1.56-1000 nM; 1:1 Langmuir fit; details: both partners purified
T1 construct: also called hAPC; APC
T1 chain 1: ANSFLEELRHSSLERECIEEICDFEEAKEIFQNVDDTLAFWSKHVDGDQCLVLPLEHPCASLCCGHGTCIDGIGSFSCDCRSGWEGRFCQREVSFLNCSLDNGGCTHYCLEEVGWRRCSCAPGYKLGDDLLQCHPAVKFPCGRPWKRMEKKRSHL
T1 chain 2: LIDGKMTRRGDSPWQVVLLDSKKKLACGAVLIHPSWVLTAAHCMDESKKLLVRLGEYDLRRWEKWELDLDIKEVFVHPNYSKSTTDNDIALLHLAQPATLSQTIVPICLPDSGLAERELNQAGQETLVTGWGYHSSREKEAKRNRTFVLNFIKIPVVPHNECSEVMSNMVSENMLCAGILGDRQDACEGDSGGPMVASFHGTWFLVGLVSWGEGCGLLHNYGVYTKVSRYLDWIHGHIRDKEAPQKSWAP

[2] = target: T2, human protein C (zymogen) (Homo sapiens, UniProt P04070); experiment: as above; details: both partners purified
T2 construct: human protein C zymogen, light chain; also called hPC; PC; source: bought: plasma-derived, Enzyme Research Laboratories

human FXa = human FXa (Homo sapiens, UniProt P00742); experiment: ELISA; data not shown; human FIIa, FVIIa, FIXa, FXa, FXIa, FXIIa coated directly on Maxisorp plates at 5–10 µg/mL; anti-APC antibodies at 20 nM; details: both partners purified
human FIXa = human FIXa (Homo sapiens, UniProt P00740); experiment: as above; details: both partners purified
human FVIIa = human FVIIa (Homo sapiens, UniProt P08709); experiment: as above; details: both partners purified
human FXIa = human FXIa (Homo sapiens, UniProt P03951); experiment: as above; details: both partners purified
human FIIa = target: T3, human FIIa (Homo sapiens, UniProt P00734); experiment: as above; details: both partners purified
T3 construct: human FIIa (thrombin), light chain; human FIIa (thrombin), heavy (catalytic) chain; also called thrombin

human FXIIa = human FXIIa (Homo sapiens, UniProt P00748); experiment: as above; details: both partners purified
[3] = target: T1, human activated protein C; experiment: ELISA; hAPC or hPC coated directly on Maxisorp plates at 100 ng/well in PBS/Ca2+; antibodies titrated, 1 h at RT; detection with HRP anti-human Fc; details: both partners purified
[4] = target: T4, monkey activated protein C (Macaca sp. (monkey plasma, species not …, UniProt A0A1D5QSH6)); experiment: cell-based or functional assay
[5] = target: T1, human activated protein C; experiment: cell-based or functional assay
[6] = target: T5, Phe–Pro–Arg–chloromethylketone active-site-blocked APC (PPACK-hAPC) (Homo sapiens, UniProt P04070, active site blocked by Phe–Pro–Arg–chloromethylketone (PPACK)); experiment: ELISA; PPACK-hAPC or hAPC coated onto a MaxiSorp plate at 100 ng per well overnight; IgG or Fab at concentrations starting at 20 nM; details: both partners purified
T5 construct: also called PPACK-APC

[7] = target: T4, monkey activated protein C; experiment: ELISA; data not shown; species cross-reactivity; species' APC or PC coated directly on Maxisorp plates at 100 ng/well in PBS/Ca2+; antibodies titrated; details: both partners purified
dog activated protein C = target: T6, dog activated protein C (Canis lupus familiaris, UniProt Q28278); experiment: as above; details: both partners purified
T6 construct: also called dog APC

[8] = target: T7, rabbit activated protein C (Oryctolagus cuniculus, UniProt Q28661); experiment: as above; details: both partners purified
T7 construct: also called rabbit APC

[9] = target: T8, monkey protein C (zymogen) (Macaca sp. (monkey plasma, species not …, UniProt A0A1D5QSH6)); experiment: as above; details: both partners purified
T8 construct: monkey protein C zymogen, light chain; also called monkey PC

[10] = target: T9, plasma-derived hAPC-Gla-domainless (APC-GD) (Homo sapiens, UniProt P04070); experiment: ELISA; APC-binding ELISA of the purified Fabs on human APC and Gla-domainless APC; format not told; details: both partners purified
T9 construct: also called APC (in the crystal structures); source: bought: plasma-derived, Enzyme Research Laboratories

B2: hu1573Fab (type II Fab, TPP-5040) (Fab, V domains shown)
VH: EVQLVESGGGLVQPGGSLRLSCAASGFTFSNYYLNWVRQAPGKGLEWVGDIRLKSNNYEKHYAESVKGRFTISRDDSKNSLYLQMNSLKTEDTAVYYCAREGDYFDYWGQGTLVTVSS
VL: DIVLTQSPASLAVSPGQRATITCKASESVDSFGATFMHWYQQKPGQPPKLLIYLASNLESGVPARFSGSGSGTDFTLTINPVEADDTANYYCQQNNEDPYTFGQGTKLEIK
notes: Humanized Fab of mouse HAPC1573; also called h1573Fab; type II (h1573) Fab; source: QMCF cells (CHO-based), transiently transfected (pTT5), purified from conditioned medium (KappaSelect, SEC)
binding result [6]: binds

B4: C25K23Fab (type I Fab, TTP-2781) (Fab, V domains shown)
VH: EVQLLESGGGLVQPGGSLRLSCAASGFTFSSYWMSWVRQAPGKGLEWVSGVSWNGSRTHYADSVKGRFTISRDNSKNTLYLQMNSLRAEDTAVYYCALTGRSGWMRFPNWFDPWGQGTLVTVTS
VL: QSVLTQPPSASGTPGQRVTISCTGSSSNIGAAYDVHWYQQLPGTAPKLLIYGNNKRPSGVPDRFSGSKSGTSASLAISGLRSEDEADYYCQSYDSSLSGSVFGGGTKLTVL
notes: Parent of TPP-2312; also called type I (C25K23) Fab; source: E. coli, purified (Protein A chromatography)
EC50 [10]: 2 to 4 nM

Now from value to binder:

Kd [1]: 10 nM | binding result [2]: no binding (tested: 1000 nM) | binding result (human FXa): no binding (tested: 20 nM) | binding result (human FIXa): no binding (tested: 20 nM) | binding result (human FVIIa): no binding (tested: 20 nM) | binding result (human FXIa): no binding (tested: 20 nM) | binding result (human FIIa): no binding (tested: 20 nM) | binding result (human FXIIa): no binding (tested: 20 nM) | EC50 [3]: 0.8 nM | Protac-aPTT in FVIII-antibody-induced hemophilia A monkey plasma, inhibition of APC anticoagulant activity, IC50 [4]: 19.3 nM | Protac-aPTT in FVIII-antibody-treated normal human plasma, IC50 [5]: 12 nM | Protac-aPTT in hemophilia A plasma, inhibition of APC activity, IC50 [5]: 11.6 nM | Protac-aPTT in normal human plasma, inhibition of APC anticoagulant activity, IC50 [5]: ~7 nM | binding result [6]: binds | EC50 [7]: ~1 nM | binding result (dog activated protein C): no binding | binding result [8]: no binding | binding result [9]: no binding
B1: type II anti-APC mAb TPP-4885 (BAY1896502) (antibody, V domains shown)
VH: B2 VH
VL: B2 VL
notes: humanized/optimized from mouse HAPC1573; variable region from the Fab joined to the hIgG2 constant region (CH1-CH2-CH3); humanized/optimized from mouse HAPC1573 (kappa); hIgG2; Derived from HAPC1573 (mIgG1/k) by humanization and optimization; also called type II mAb; BAY 1896052; source: HEK293-6E, transiently co-transfected (pTT5), purified (protein A, SEC)

binding result (human FXa): no binding (tested: 20 nM) | binding result (human FIXa): no binding (tested: 20 nM) | binding result (human FVIIa): no binding (tested: 20 nM) | binding result (human FXIa): no binding (tested: 20 nM) | binding result (human FIIa): no binding (tested: 20 nM) | binding result (human FXIIa): no binding (tested: 20 nM) | Protac-aPTT in FVIII-antibody-induced hemophilia A monkey plasma, inhibition of APC anticoagulant activity, IC50 [4]: 9.3 nM | EC50 [7]: ~1 nM | EC50 (dog activated protein C): ~1 nM | EC50 [8]: ~1 nM
B3: type I anti-APC mAb TPP-2312 (BAY1316786) (antibody, V domains shown)
VH: B4 VH with S56A, T123S
VL: B4 VL with A10V, T13A, S78T, R81Q, S82A
notes: variable region as the heavy chain of C25K23 with S56A in CDR2, joined to the hIgG2 constant region (CH1-CH2-CH3); as the light chain of C25K23 with K55R in CDR2; hIgG2; Candidate C25K23 was germlined and optimized to become TPP-2312; also called type I mAb; source: HEK293-6E, transiently co-transfected (pTT5), purified (protein A, SEC)
